{
  "source": "paper PMC12210189",
  "about": "“Crystal structure of the sucrose phosphorylase from Alteromonas mediterranea shows a loop transition in the active site” (Acta Crystallographica Section F: Structural Biology …, 2025)",
  "proteins": {"B1": {"name": "sucrose phosphorylase from Alteromonas mediterranea (enzyme)", "chain": "MGSIRNGVQLITYADRLGDGNIESLTNLLDGPLKGLFKGVHILPFYYPYDGEDAGFDPIDHTTVDERLGDWNNIKKLGESVDIMADLIVNHMSGQSEAFTDVLKKGRESEYWPLFLTKEDVFSGNDQAEIDEQIAKVFRPRPTPFFSDYEVGIETDSTETVPFWTTFTSNQIDIDVESELGKEYLSSILQSFTESNVDLIRLDAAGYAIKRAGSNCFMLEETFEFIEALSKRARTMGMQCLVEIHSHYQTQIDIAARCDSVYDFALPPLVLHTLFTKDASALAHWLSISPRNCFTVLDTHDGIGIVDVGASGDKPGLISADAINALVEQIHVNSNGESKKATGAAANNVDLYQVNCTYYDALGKDDFAYLVARAIQFFSPGIPQVYYGGLLAAHNDMELLANTNVGRDINRPYLTTAMVEDAIQKPVVKGLMQLITLRNENKAFGGAFDVTYTDNTLVLSWSNDGDAASLTVDFAAMDATINTVSNGEESTLSIGALLA", "notes": "sucrose phosphorylase (AmSP-WT), Alteromonas mediterranea, UniProt S5AE64_9ALTE; synthetic gene in pET-28b; also called AmSP; AmSP-WT; source: E. coli BL21(DE3), purified (Ni-NTA IMAC, size-exclusion chromatography)"}},
  "target": "the molecule itself",
  "test": "crystal structure; sitting drop, 295 K; protein 6.9 mg/ml in 25 mM HEPES, 50 mM NaCl, 0.5 mM DTT pH 7.0; reservoir 60%(v/v) Tacsimate pH 7.0; apo enzyme; 2.15 Å; two molecules (one dimer) in the asymmetric unit",
  "data": [
    {"protein": "B1", "values": [
      {"measurement": "stoichiometry N", "result": 2}
    ]}
  ]
}
